These results are taken from patent publication US20220119522A1.

The target of this experiment is mouse TREM2 truncated stalk peptide (aa 149-163) (mouse) (UniProt Q99NH8). As to the kind of experiment: ELISA on biotinylated peptide captured by streptavidin; A450 normalised to isotype control. A general note: ELISA stands for enzyme-linked immunosorbent assay.

Residue numbers refer to the chain shown, from its start.

B1: CL0020173 (antibody, V domains shown)
VH: EVKLLESGGGLVQPGSSMRLSCAASGFTFTDFYMNWIRQPAGRAPEWLGFFRNIVDGYTTEYNPSVKGRFTISRDNTQNMLYLQMNTLRAEDTATYYCARSGYSSYIYGGTFAYWGQGTLVTVSS
VL: ETVMTQSPTSMSTSIGERVTLNCKASQSVGIHVDWYQQTPGQSPKLLIYGASNRHTGVPDRFTGSGFGRDFTLTISNVEAEDLAVYYCLQYGSIPWTFGGGTKLELK
For B1, the fold over background (A450) was found to be 1.2 fold.

B2: CL0020162 (antibody, V domains shown)
VH: QIQLVQSGPELKKPGESLKISCKASGYTFTDYAMQWVKQAPEKGLQYMGWINTQTGKPTYADDFKERFVFSLETSATTAYLQINNLKNEDMATYFCVRSYNNYENWFAYWGQGTLVTVSS
VL: DIVMTQSPSSLAVSAGETVTINCKSSQSLLYSGNQKNYLAWYQQKPGQSPKVLIYWASTRQFGVPDRFIGSGSGTDFTLTISSVQAEDLAIYYCQQYYNSPITFGSGTKLEIK
On to B2, for which the fold over background (A450) stood at 1.4 fold.

B3: CL0020139 (antibody, V domains shown)
VH: EVQLQQSGPELVKPGASVKMSCKAPGYSFTSYLMNWVKQKPGQGLEWIGYINPYSAGSNYNEKFKDKATLTSDKSSSTAYMELRSLTSEDSAVYFCARSSYRYGFDYWGQGTTLTVSS
VL: DIQMTQSSSSFSVSLGDRVTITCKASEDIYNRLAWYQQKPGNAPRLLISGATSLETGVPSRFSGSGSGKDYTLSITSLQTEDVATYSCQQYWSTPWTFGGGTKLEIK
Consider B3, for which the fold over background (A450) came out at 1.6 fold.

B4: CL0020109 (antibody, V domains shown)
VH: EVQLQQSGPVLVKPGASLKMSCRASGYTFTDYYVHWVKQSHGKSLEWIGLINPYTGTTSYNQRFKGKATLTVDKSSSTAYMEVNSLTSEDSAVYYCARSRVYYGSSLFAFWGQGTLVTVSA
VL: DIVMTQSPSSLSVSAGEKVTMSCKSSQSLLNSGNQKNYLAWYQQKPGQPPKLLIYGASTRESGVPDRFTGSGSGTDFTLTISSVQAEDLAVYYCQNDHSYPYTFGGGTKLEIK
In the case of B4, the fold over background (A450) turned out to be 1.7 fold.

B5: CL0020205 (antibody, V domains shown)
VH: B4 VH with L18V, R23K, K65R, G66V
VL: B4 VL
For the molecule B5, the fold over background (A450) was 1.1 fold.

B6: CL0020215 (antibody, V domains shown)
VH: QVQLQQPGAELVKPGASVKMSCKASGYTFTNYWIMWVKQRPGQGLEWIGDIYPSSGSTNYNEKFKNRATLTVDTSSNTAYMQLSSLTSEDSAVYFCSREGYGISAWGQGTTLTVSS
VL: QIVLTQSPAIMSASPGEKVTITCSASSSVSYMHWFQQKPGTSPKLWIYSTSNLASGVPARFSGSGSGTSCSLTISRMEAEDAATYYCQQRSSFPLTFGAGTKLELK
As to B6, the fold over background (A450) was found to be 1.2 fold.

B7: CL0020111 (antibody, V domains shown)
VH: B6 VH with E10D, M35T, K38Q, S54G, S57N, K65R, N66S, R67K, F95Y
VL: B6 VL with I10F, S24R, Y48F, C70H, S92G, F93Y
On to B7, for which the fold over background (A450) was found to be 1.5 fold.

B8: CL0020120 (antibody, V domains shown)
VH: EVQLQQSGPELVRTGASVKISCRASSYSFTDNYIHWVKQTHGRSLEWIGYISGYTGATSYNQKFKGKATFTVDTSSSTAYMQFNSLTSEDSAVYYCARSTMIAPYGMDYWGQGTSVTVSS
VL: DIVMTQSHKFMSTSVGDRVNITCKASQDVVTAVAWYQQKPGQSPKLLIYWASTRHTGVPDRFTGSGSGTDFTLTISNVQSEDLADYFCQQYSRYPLTFGAGTKLELK
Regarding B8, the fold over background (A450) came out at 1.2 fold.

B9: CL0020127 (antibody, V domains shown)
VH: EVQLQQSGPVLVKPGASVKMSCKASGYKFTDYYMNWVKQSHGKSLEWIGTINPYSGGISYNQKFKGKATLTVDKSSSTAYMELNSLTSEASAVYYCTRRNWDGRYAMDYWGQGTSVTVSS
VL: B8 VL with N20S, V30S, D85E, R93S, L96F, A100G, L106I
For the molecule B9, the fold over background (A450) turned out to be 1.2 fold.

B10: CL0020206 (antibody, V domains shown)
VH: B9 VH with K28T, T50I, T69I
VL: B8 VL with N20S, C23Y, V30G, T31S, A51T, R93S, L96F, A100G, L106I
On to B10, for which the fold over background (A450) amounted to 1.6 fold.

B11: CL0020210 (antibody, V domains shown)
VH: QIQLVQSGPELRKPGETVKISCKASGYTFTTYGMSWVKQAPGKGLKWMGWINTYSGLPRHSDDFKGRFAFSLETSASTAYLQINNLKNEDTATYFCAREVYYGSRKTAWFAYWGQGTLVTVSA
VL: DLVMSQSPSSLAVSVGERITMTCKSSQSLLYSNDQKNYLAWYQQIPGQSPKLLLYWASTRESGVPDRFTGSGSGTDFTLTISSVKAEDLAVYFCQQYYNYPPTFGAGTKLELK
As for B11, the fold over background (A450) was 1.6 fold.

B12: CL0020123 (antibody, V domains shown)
VH: EVQLQQSGAELVRSGASVKLSCTASGFSIEDFYIHWVKQRPEQGLEWIGWIDPENGDSKYAPKFQGKATMTADTSSNTAYLHLSSLTSEDTAVYYCHADHGNYGSTMDYWGQGTSVTVSS
VL: DIQMNQSPSSLSASLGDTVTITCHASQHINVWLSWYQQKPGDHPKLLIYKASNLHTGVPSRFSGSGSGTGFTLTISSLQPEDIATYYCQQGQTYPRTFGGGTKLEIK
On to B12, for which the fold over background (A450) amounted to 0.9 fold.

B13: CL0020164 (antibody, V domains shown)
VH: EVKLLESGGGLVQPGGSLRLSCAASGFTFTDFYMSWIRQPPGKAPEWLGVIRNKANGFTTEYNTSVKGRFTISRDYTQNILHLQTNTLRAEDTAIYYCARLTYGFDYWGQGVMVTVSS
VL: DIVMTQGALPNPVPSGESASITCQSSKSLLHSNGKTYLNWYLQRPGQSPQFLIYWMSTRASGVSDRFSGSGSGTDFTLKISSVEAEDVGVYYCQQFLELPFTFGSGTKLEIK
On to B13, for which the fold over background (A450) turned out to be 1.5 fold.

B14: CL0020186 (antibody, V domains shown)
VH: EVQLVESGGGLVQPGRSLKLSCPASGFTFSYYGMAWVRQAPTKGLEWVASISTGGGNTYYRDSVKGRFTISRDNAKNTLYLQMDSLRSEDTATYYCARGDIGTAYWFTYWGQGTLVTVSS
VL: NIQLTQSPSLLSASVGDRVTLSCKGSQNINNYLAWYQQKLGEAPKLLIYKTNSLLTGIPSRFSGSGSGTDYTLTISSLHSEDLATYYCYQYNNGWTFGGGTKLELK
Regarding B14, the fold over background (A450) came to 1.3 fold.

B15: CL0020161 (antibody, V domains shown)
VH: EVQLVESGGGLVQPGRSMKLSCAALGFTFSNYYMAWVRQAPRKGLEWVASISTGGDNTYYRDSVKGRFTISRDNAKSTLYMQMDSLRSEDTATYYCVRSFIVGTTGYYFDYWGQGVMVTVSS
VL: DIVLTQSPALAVSLGQRATISCKTNQNVDYYGNNYMHWYQQTPGQQPKLLIYFASNLASGIPARFSGRGSGTDFTLTIDPVEADDTATYYCQQSRNLPTFGGGTKLELK
Consider B15, for which the fold over background (A450) was 1.1 fold.

B16: CL0020195 (antibody, V domains shown)
VH: EVQLVESGGGLVQPGRSMMLSCSASGFTFSNYHMAWVRQAPTTGLEWVASITTGSGNTYYRHSVKGRFTISRDNAKSTLYLQMDSLRSEDTASYYCARRWYGGYEGYYFDYWGQGVMVTVSS
VL: DIQMTQSPSLLSASVGDRVTLSCKAGQNVNNYLAWYQQKLGEAPKLLIYNANILQTGFPSRFSGTGSGTDFTLTISSLQPEDVATYFCQQYNSWTTFGGGTKLELK
Consider B16, for which the fold over background (A450) was found to be 1.2 fold.

B17: CL0020201 (antibody, V domains shown)
VH: EVQLQQSGPVLVKPGASVRMSCKPSGYTFTDYYMNWVKQSHGKSLEWIGSINPYTGGSSYNQNFRGKATLTVDKSSSTAYMELNSLTSEDSAVYYCARGSYYSNLGFAYWGQGTLVTVSA
VL: DVQLTQSPSFLTASPGETITINCRASKSISKYLAWYQEKPGKTNKLLISSGSTLQSGIPSRFSGSGSGTDFTLTISSLEPEDFAMYYCQQYSEYPFTFGSGTKLEIK
With B17, the fold over background (A450) was determined as 1.8 fold.

B18: CL0020113 (antibody, V domains shown)
VH: QIQLVQSGPELKKPGESLKISCKASGYTFTDYAMQWVKQAPGKGLQYMGWINTQTGKPTYADDFKERFVFSLETSASTAYLKINNLKNDDMATYLCARSYGGEYNWIAYWGQGTLVTVSS
VL: DIVMTQTPSSQAVSAGEKVTMNCKSSQSLLYNENKKNYLAWYQQKPGQSPKLLIYWASTRESGVPDRFIGSGSGTDFTLTISSVQAEDLAVYYCQQSYNFPPTFGGGTKLELK
Turning to B18, the fold over background (A450) came out at 1.3 fold.

B19: CL0020313 (antibody, V domains shown)
VH: QVQLKQSGPGLLQPSQSLSITCTVSGFSLTSYGVHWVRQSPGKGLEWLGVIWSGGITLYNAAFMSRLSITKDNSKSQVFFKMNSLQADDTAIYYCAKVGYGSSSDYWGQGTTLTVSS
VL: DVLMTQSPLSLPVSLGDQASFSCRSSQSIVHSNGNTYLEWYLQKPGQSPKLLIYKVSNRFSGVPDRFSGSGSGTDFTLKISRVEAEDLGVYYCFQGSHVPFTFGSGTKLEIK
Turning to B19, the fold over background (A450) is 1.1 fold.

B20: CL0020103 (antibody, V domains shown)
VH: EVQLQQSGPELVKPGASVKISCKTSGYTFTEYTMHWVKESHGKSLEWIGGINPNKGGSSYNQKFKGKATLTVDKSSSTAYMDLRRLTSEDSAVYYCARGGYEYYALDYWGQGTSVTVSS
VL: DIVMSQSPSSLTVSVGERVTMSCKSSQSLLYSRNQKNYLAWYQQKPGQSPKLLIYWASTRESGVPDRFTGSGSGTDFSLTISSVKAEDLAVYYCQQYYSYPPTFGGGTKLEIK
For B20, the fold over background (A450) came out at 1.8 fold.

B21: CL0020214 (antibody, V domains shown)
VH: QVRLQQSGAELVRPGSSVKLSCKASGYAFSSYWMNWVKQRPGQGLEWIGQIYPGDGDTNYNGNFKGKATLTADNSSSTAYMQLSSLTSEDSAVYFCARRRNGDFGDYAMDYWGQGTSVTVSS
VL: QIVLTQSPAIMSASPGEKVTISCSASSSVSYMCWYQQKPGSSPKPWIYRTSTLASGVPARFSGSGSGTSYSLTISSMEAADAATYYCQHYHSYPFTFGAGTKLELK
Turning to B21, the fold over background (A450) stood at 1.3 fold.
